The experiment deals with T1, Regulator of sigma D from Escherichia coli (Rsd^ec) (E. coli, UniProt P0AFX4 1-158).
T1 construct: Rsd (regulator of sigma D), anti-sigma factor of sigma 70, E. coli; 158-residue-long protein; called 'intact Rsd' in the abstract and 'wild-type Rsd vector' in the methods; Vector was a gift from Ann Hochschild; source: E. coli C41, purified as described [24,50]
T1 sequence (looked up): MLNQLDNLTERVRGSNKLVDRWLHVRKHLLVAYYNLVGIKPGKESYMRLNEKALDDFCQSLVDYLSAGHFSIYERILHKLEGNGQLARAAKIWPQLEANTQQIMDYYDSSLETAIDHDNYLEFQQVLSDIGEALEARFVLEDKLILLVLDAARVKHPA
The experiment is described as follows: ITC; Rsd^ec or EIN^sc (10–20 µM) in the cell, peptide (100–200 µM) in the syringe; 50 mM Tris, pH 7.0, 25 °C; single binding-site model, 1:1 stoichiometry assumed. The settings on record: both partners purified.

As a reminder, the Kd is a measure of binding affinity in units of concentration. Low readings indicate tighter binding, high ones weaker binding.

B1: HPr^9–30 I21A peptide (peptide)
peptide: Ac-GWAEGLHARPASAFVRAATATG-NH2
notes: HPr of Streptomyces coelicolor, residues 9-30, with I21A; source: synthetic peptide, bought: NZYTech (purity >95%)
B1 gave a dH of 1 ± 0.4 kcal/mol.

B2: HPr^9–30 P18A peptide (peptide)
peptide: Ac-GWAEGLHARAASIFVRAATATG-NH2
notes: HPr of Streptomyces coelicolor, residues 9-30, with P18A; source: synthetic peptide, bought: NZYTech (purity >95%)
In turn, B2 yielded a Kd of 2.2 ± 0.4 µM and a dH of 1.1 ± 0.4 kcal/mol.

B3: HPr^9–30 P18A/I21A/V23A peptide (peptide)
peptide: Ac-GWAEGLHARAASAFARAATATG-NH2
notes: HPr of Streptomyces coelicolor, residues 9-30, with P18A, I21A and V23A; also called triple-mutant; source: synthetic peptide, bought: NZYTech (purity >95%)
In the case of B3, the Kd is 2.6 ± 0.4 µM and the dH was determined as 0.6 ± 0.4 kcal/mol.

The values are drawn from article PMC8509676, “Residual Helicity at the Active Site of the Histidine Phosphocarrier, HPr, Modulates Binding Affinity to Its Natural Partners” (International Journal of Molecular Sciences, 2021).
